Reference: US20220389118A1 (Chugai, published 2022)

What was measured:
[1] = target: T1, human FcγRIa extracellular domain with C-terminal His tag (human, UniProt P12314 16-292); assay: SPR (Biacore), antibody captured, FcγR analyte
T1 construct: not shown: His tag at the C terminus

[2] = target: T2, human FcγRIIa type H (allotype H131) extracellular domain with C-terminal His tag (human, UniProt P12318 34-217); assay: SPR (Biacore), antibody captured, FcγR analyte
T2 construct: extracellular domain; also called FcγRIIaH; FcγRIIa H type; not shown: His tag at the C terminus
T2 sequence (looked up): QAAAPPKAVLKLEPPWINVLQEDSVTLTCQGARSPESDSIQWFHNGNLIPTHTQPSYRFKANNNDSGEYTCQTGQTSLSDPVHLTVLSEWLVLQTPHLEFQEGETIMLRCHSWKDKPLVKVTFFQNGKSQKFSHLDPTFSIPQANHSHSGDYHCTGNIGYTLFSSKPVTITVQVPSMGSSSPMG

[3] = target: T3, human FcγRIIb extracellular domain with C-terminal His tag (human, UniProt P31994 43-217); assay: SPR (Biacore), antibody captured, FcγR analyte
T3 construct: extracellular domain; not shown: His tag at the C terminus
T3 sequence (looked up): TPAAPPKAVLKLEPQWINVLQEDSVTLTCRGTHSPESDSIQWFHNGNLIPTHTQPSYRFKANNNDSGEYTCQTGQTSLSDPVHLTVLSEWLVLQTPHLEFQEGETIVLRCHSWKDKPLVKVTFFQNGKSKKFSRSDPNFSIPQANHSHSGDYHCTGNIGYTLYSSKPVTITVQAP

[4] = target: T4, human FcγRIIIa type V (allotype V158) extracellular domain with C-terminal His tag (human, UniProt P08637 17-208); assay: SPR (Biacore), antibody captured, FcγR analyte
T4 construct: extracellular domain; also called FcγRIIIaV; FcγRIIIa V type; not shown: His tag at the C terminus
T4 sequence (P08637 17-208 F176V): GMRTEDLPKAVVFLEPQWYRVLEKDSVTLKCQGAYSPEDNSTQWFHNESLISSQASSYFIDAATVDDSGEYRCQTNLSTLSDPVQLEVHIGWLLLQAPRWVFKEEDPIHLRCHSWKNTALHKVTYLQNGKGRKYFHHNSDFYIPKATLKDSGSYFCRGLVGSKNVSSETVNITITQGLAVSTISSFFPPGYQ

[5] = target: T3, human FcγRIIb extracellular domain with …; assay: SPR (Biacore); KD ratio against IL6R-B3/IL6R-L
[6] = target: T5, human FcγRIIb extracellular domain (human, UniProt P31994 43-217); assay: fold against IL6R-B3/IL6R-L, from SPR KD values
T5 construct: also called FcγIIB; not shown: His tag at the C terminus
T5 sequence: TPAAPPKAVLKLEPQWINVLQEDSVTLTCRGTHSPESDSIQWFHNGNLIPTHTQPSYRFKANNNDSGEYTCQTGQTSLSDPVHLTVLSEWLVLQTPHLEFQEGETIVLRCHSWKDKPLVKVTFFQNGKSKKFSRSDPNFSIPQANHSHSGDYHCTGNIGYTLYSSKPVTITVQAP

[7] = target: T6, human FcγRIIa type R extracellular domain (human, UniProt P12318 34-217); assay: fold against IL6R-B3/IL6R-L, from SPR KD values
T6 construct: also called FcγRIIaR; FcγRIIa(R); not shown: His tag at the C terminus
T6 chain: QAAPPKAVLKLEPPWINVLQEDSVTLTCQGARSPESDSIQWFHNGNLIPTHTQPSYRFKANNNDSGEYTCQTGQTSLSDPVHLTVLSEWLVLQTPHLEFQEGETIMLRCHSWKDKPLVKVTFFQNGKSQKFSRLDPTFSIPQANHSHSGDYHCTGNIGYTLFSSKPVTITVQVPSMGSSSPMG

[8] = target: T5, human FcγRIIb extracellular domain; assay: ratio of the SPR KD for FcγRIIaH to the KD for FcγRIIb (selectivity)
[9] = target: T5, human FcγRIIb extracellular domain; assay: ratio of the SPR KD for FcγRIIaR to the KD for FcγRIIb (selectivity)
[10] = target: T5, human FcγRIIb extracellular domain; assay: SPR (Biacore), antibody captured on chip, FcγR extracellular domain as analyte, 25 C
[11] = target: T7, human FcγRIa extracellular domain (human, UniProt P12314 16-292); assay: as above
T7 construct: also called CD64; not shown: His tag at the C terminus
T7 sequence (P12314 16-292): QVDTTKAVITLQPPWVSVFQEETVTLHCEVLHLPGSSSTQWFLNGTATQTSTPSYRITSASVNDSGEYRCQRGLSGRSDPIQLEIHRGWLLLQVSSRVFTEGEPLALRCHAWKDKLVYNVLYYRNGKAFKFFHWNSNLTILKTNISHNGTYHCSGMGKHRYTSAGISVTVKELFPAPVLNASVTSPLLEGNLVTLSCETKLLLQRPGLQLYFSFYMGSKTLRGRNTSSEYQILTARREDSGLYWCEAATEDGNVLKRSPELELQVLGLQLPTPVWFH

[12] = target: T6, human FcγRIIa type R extracellular …; assay: as above
[13] = target: T8, human FcγRIIa type H extracellular domain (human, UniProt P12318 34-217); assay: as above
T8 construct: also called FcγRIIaH; FcγRIIa(H); not shown: His tag at the C terminus
T8 sequence: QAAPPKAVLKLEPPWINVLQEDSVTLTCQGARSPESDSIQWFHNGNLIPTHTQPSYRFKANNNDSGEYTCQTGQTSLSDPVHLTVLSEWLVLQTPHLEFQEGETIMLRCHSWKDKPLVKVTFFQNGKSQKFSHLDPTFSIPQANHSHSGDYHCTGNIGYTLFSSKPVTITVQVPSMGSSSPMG

[14] = target: T9, human FcγRIIa type R (allotype R131) extracellular domain with C-terminal His tag (human, UniProt P12318 34-217); assay: SPR (Biacore), antibody captured, FcγR analyte
T9 construct: extracellular domain; also called FcγRIIaR; FcγRIIa R type; not shown: His tag at the C terminus
T9 sequence (looked up): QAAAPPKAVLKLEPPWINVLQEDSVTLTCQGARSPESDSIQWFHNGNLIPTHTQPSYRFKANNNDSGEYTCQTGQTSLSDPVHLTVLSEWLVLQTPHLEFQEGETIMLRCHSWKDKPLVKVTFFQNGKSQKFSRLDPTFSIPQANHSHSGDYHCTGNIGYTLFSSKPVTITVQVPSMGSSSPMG

[15] = target: T10, soluble human IL-6 receptor (hsIL-6R) (human, UniProt P08887 20-357); assay: SPR (Biacore T100), 3 µM CaCl2; estimated by Equation 3; summary table
T10 sequence: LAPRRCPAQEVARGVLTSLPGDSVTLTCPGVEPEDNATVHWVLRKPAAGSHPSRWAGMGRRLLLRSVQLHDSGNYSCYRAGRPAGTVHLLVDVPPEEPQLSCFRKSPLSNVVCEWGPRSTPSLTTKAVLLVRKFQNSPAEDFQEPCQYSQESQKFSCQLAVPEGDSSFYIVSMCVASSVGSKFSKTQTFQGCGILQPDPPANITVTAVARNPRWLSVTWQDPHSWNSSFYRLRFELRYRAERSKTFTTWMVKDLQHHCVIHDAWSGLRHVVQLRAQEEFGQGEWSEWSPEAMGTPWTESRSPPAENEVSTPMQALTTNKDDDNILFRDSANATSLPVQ
Method: (§1) The kinetic analysis of the antigen-antibody reactions was conducted in solutions with 2 mM and 3 μM calcium ion concentrations, set as high and low calcium ion concentration conditions, respectively. The antibody of interest was captured on Sensor chip CM4 (GE Healthcare) on which an appropriate amount of Protein A (Invitrogen) was immobilized by an amine coupling method. Two buffers [10 mM ACES, 150 mM NaCl, 0.05% (w/v) Tween 20, and 2 mM CaCl₂) (pH 7.4) or 10 mM ACES, 150 mM NaCl, 0.05% (w/v) Tween 20, and 3 μmol/L CaCl₂ (pH 7.4)] were used as running buffers. These buffers were used for diluting human IL-6 receptor. All the measurements were conducted at 37° C.
(§2) Subsequently, the sensor chip was regenerated by injecting 10 mM glycine-HCl (pH 1.5) at a flow rate 30 μL/min for 30 seconds. Dissociation constants (KD) (M) were calculated from the sensorgrams obtained in the measurement, using a steady-state affinity model. Each parameter was calculated using the Biacore T100 Evaluation Software (GE Healthcare).

[16] = target: T10, soluble human IL-6 receptor (hsIL-6R); assay: SPR (Biacore T100), 3 µM CaCl2, pH 7.4, 37 C; KD estimated from Req, Rmax, RI and C by Equation 3
Method: as §1, §2

[17] = target: T11, soluble human IL-6 receptor (human, UniProt P08887 20-357); assay: SPR (Biacore T100), about 300 RU of antibody captured on a Protein A/G chip (CM5), human IL-6 receptor as analyte, pH 7.4, 1.2 mM CaCl2, 37 °C
T11 construct: also called hsIL-6R
T11 sequence: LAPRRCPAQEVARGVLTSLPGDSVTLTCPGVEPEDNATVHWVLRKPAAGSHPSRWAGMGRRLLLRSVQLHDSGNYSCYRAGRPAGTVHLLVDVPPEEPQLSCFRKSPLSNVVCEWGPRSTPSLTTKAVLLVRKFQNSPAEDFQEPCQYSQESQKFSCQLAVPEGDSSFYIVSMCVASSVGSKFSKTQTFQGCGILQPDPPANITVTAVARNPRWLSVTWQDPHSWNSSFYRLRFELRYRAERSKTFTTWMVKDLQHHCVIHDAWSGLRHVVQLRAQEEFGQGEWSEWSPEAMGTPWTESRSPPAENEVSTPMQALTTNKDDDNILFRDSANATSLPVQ
Method: These buffers were each used to dilute human IL-6 receptor. All measurements were carried out at 37° C.
Then, 10 mM glycine-HCl (pH 1.5) was injected at a flow rate of 30 μl/min for 30 seconds to regenerate the sensor chip.

T1 sequence (P12314 16-292): as the sequence (P12314 16-292) above

B1: IL6R-BP198/IL6R-L (antibody, human IgG1, kappa)
heavy: QVQLQESGPGLVKPSETLSLTCAVSGHSISHDHAWSWVRQPPGEGLEWIGFISYSGITNYNPSLQGRVTISRDNSKNTLYLQMNSLRAEDTAVYYCARSLARTTAMDYWGEGTLVTVSSASTKGPSVFPLAPSSKSTSGGTAALGCLVKDYFPEPVTVSWNSGALTSGVHTFPAVLQSSGLYSLSSVVTVPSSSLGTQTYICNVNHKPSNTKVDKKVEPKSCDKTHTCPPCPAPDYLGGDSVFLFPPKPKDTLMISRTPEVTCVVVDVSDEDGEVKFNWYVDGVEVHNAKTKPREEQYNSTYRVVSVLTVLHQDWLNGKEYKCKVSNAALPKPIEKTISKAKGQPREPQVYTLPPSRDELTKNQVSLTCLVKGFYPSDIAVEWESNGQPENNYKTTPPVLDSDGSFFLYSKLTVDKSRWQQGNVFSCSVMHEALHNHYTQESLSLSP
light: not shown
notes: copies: 2 + 2
[1]
  Kd: 0.011 µM
[2]
  Kd: 20 µM
[3]
  Kd: 0.2 µM
[4]
  Kd: 44 µM
[5]
  KD(IIb) of parent polypeptide/KD(IIb) of altered polypeptide: 15.7

B2: IL6R-BP565/IL6R-L (antibody, human IgG1, kappa)
heavy: QVQLQESGPGLVKPSETLSLTCAVSGHSISHDHAWSWVRQPPGEGLEWIGFISYSGITNYNPSLQGRVTISRDNSKNTLYLQMNSLRAEDTAVYYCARSLARTTAMDYWGEGTLVTVSSASTKGPSVFPLAPSSKSTSGGTAALGCLVKDYFPEPVTVSWNSGALTSGVHTFPAVLQSSGLYSLSSVVTVPSSSLGTQTYICNVNHKPSNTKVDKKVEPKSCDKTHTCPPCPAPDLLGDDSVFLFPPKPKDTLMISRTPEVTCVVVDVAEEDGEVKFNWYVDGVEVHNAKTKPREEQDNSTYRVVSVLTVLHQDWLNGKEYKCKVSNKALPRPIEKTISKAKGQPREPQVYTLPPSRDELTKNQVSLTCLVKGFYPSDIAVEWESNGQPENNYKTTPPVLDSDGSFFLYSKLTVDKSRWQQGNVFSCSVMHEALHNHYTQESLSLSP
light: not shown
notes: copies: 2 + 2
[6]
  KD(IIb) of the parent polypeptide/KD(IIb) of the altered polypeptide: 565
[7]
  KD(IIaR) of the parent polypeptide/KD(IIaR) of the altered polypeptide: 4.8
[8]
  KD(IIaH)/KD(IIb): 856
[9]
  KD(IIaR)/KD(IIb): 41.5
[10]
  Kd: 0.0055 µM
[11]
  Kd: 0.0024 µM
[12]
  Kd: 0.23 µM
[13]
  Kd: 4.7 µM

B3: IL6R-BP223/IL6R-L (antibody, human IgG1, kappa)
heavy: QVQLQESGPGLVKPSETLSLTCAVSGHSISHDHAWSWVRQPPGEGLEWIGFISYSGITNYNPSLQGRVTISRDNSKNTLYLQMNSLRAEDTAVYYCARSLARTTAMDYWGEGTLVTVSSASTKGPSVFPLAPSSKSTSGGTAALGCLVKDYFPEPVTVSWNSGALTSGVHTFPAVLQSSGLYSLSSVVTVPSSSLGTQTYICNVNHKPSNTKVDKKVEPKSCDKTHTCPPCPAPEYLGDDSVFLFPPKPKDTLMISRTPEVTCVVVDVSDEDGEVKFNWYVDGVEVHNAKTKPREEQYNSTYRVVSVLTVLHQDWLNGKEYKCKVSNAALPRPIEKTISKAKGQPREPQVYTLPPSRDELTKNQVSLTCLVKGFYPSDIAVEWESNGQPENNYKTTPPVLDSDGSFFLYSKLTVDKSRWQQGNVFSCSVMHEALHNHYTQESLSLSP
light: not shown
notes: copies: 2 + 2
[14]
  Kd: 0.6 µM

B4: 6RL#9-IgG1 (antibody, V domains shown)
VH: QVQLVQSGAEVKKPGASVKVSCKASGYTFTSYYMHWVRQAPGQGLEWMGIINPSGGSTSYAQKFQGRVTMTRDTSTSTVYMELSSLRSEDTAVYYCARDDPGGGEYYFDYWGQGTLVTVSS
VL: QSVLTQPPSVSGAPGQRVTISCTGSRSNMGAGYDVHWYQLLPGAAPKLLISHNTHRPSGVPDRFSGSKSGASASLAITGLQAEDEADYYCQSHDSSLSAVVFGGGTKLTVLS
[15]
  Kd: ≥ 31 µM
[16]
  Kd: ~31 µM

B5: FH4-IgG1 (antibody, V domains shown)
VH: QVQLVQSGAEVKKPGSSVKVSCKASGGTFSSYAISWVRQAPGQGLEWMGGIIPIFGTANYAQKFQGRVTITADESTSTAYMELSSLRSEDTAVYYCARERDYYDSSGYYDAFDIWGQGTMVTVSS
VL: ETTVTQSPSFLSASVGDRVTITCITTTDIDDDMNWFQQEPGKAPKLLISEGNILRPGVPSRFSSSGYGTDFTLTISKLQPEDFATYYCLQSDNLPFTFGQGTKLEIKR
[15]
  Kd: ≥ 34 µM
[16]
  Kd: ~34 µM

B6: 6RpH#02 (antibody, human IgG1, kappa, V domains shown)
VH: QVQLVQSGAEVKKPGSSVKVSCKASGGTFSSYAISWVRQAPGQGLEWMGGIIPIFGTANYAQKFQGRVTITADESTSTAYMELSSLRSEDTAVYYCMINGVWEGGMDVWGQGTTVTVSS
VL: DIQMTQSPSSLSASVGDRVTITCRASQSIHSHLNWYQQKPGKAPKLLIYHASKLQSGVPSRFSGSGSGTDFTLTISSLQPEDFATYYCQQHGNSPLTFGQGTKVEIKR
[17]
  binding result: binds
